From patent publication US20230382979A1 (ADAPTIVE BIOTECHNOLOGIES, published 2023)
Changes are numbered by the printed parent chain.

B1: antibody 2788 (antibody, V domains shown)
VH: QVQLVQSGAEVKKPGASVKVSCKVSGYTLIELSMHWVRQAPGKGLEWMGGFDPEGAETIYAQKFQGRVTMTEDTSTDTAYMELSSLRSDDTAVYYCATGPAVFAANWFDPWGQGTLVTVSS
VL: QSALTQPPSASGSPGQSVTISCTGTSSDIGNYNNVSWYQQHPGKAPKLMIYDVIKRPSGVPDRFSGSKSGNTASLTVSGLQAEDEADYYCSSYAGKSYVFGTGTKVTVL
B2: antibody 937 (antibody, V domains shown)
VH: EVQLVESGGGLVQPGRSLRLSCAASGFTFDDYAMHWVRQAPGKGLEWVSGISWNSGSIGYADSVKGRFTISRDNAKNSLYLQMNSLKPEDTALYYCAKSTTSCYNGSQCPTKRPKPLESWGQGTLVIVSA
VL: DIQMTQSPSTLSAFVGDRVTITCRASQSINNWLAWYQQKPGEVPKLLIYKASSLENGVPSRFSGSGFGTEFTLTISSLQPDDFAIYYCQQYYSHSHTFGQGTKLEIK
B3: antibody 2025 (antibody, V domains shown)
VH: QVQLVQSGAEVKKPGASVKVSCKVSGYTLIELSMHWVRQAPGKGLEWMGGFDPEDVETIYAQKFQGRVTMTEDTSTDTAYMELSSLRSEDTAVYYCATAYAVQWRGMIGYWGQGTLVTVSS
VL: QSALTQPASVSGSPGQSITISCTGTSSDVGSYNLVSWYQQHPGKAPKLMIYEVSKRPSGVSNRFSGSKSGNTASLTISGLQAEDEADYYCSSYAGSSTFSYVFGTGTKVTVL
B4: antibody 2598 (antibody, V domains shown)
VH: QVQLQESGPGLVKPSGTLSLTCVVSGGSISSSNWWSWVRQPPGKGLEWIGETFHSGSFNYNPSLKSRVTISVDKSKNQFSLKLSSVTAADTAIYYCATTRVGYEGHFYYYGMDVWGQGTTVTVSS
VL: DIQMTQSPSSVSASVGDRVTITCRASQGISSWLAWYQQKPGKAPKLLIYAASSLQSGVPSRFSGSGSGTDFTLTISSLQPEDFATYYCQQANRFPWTFGQGTKVEIK
B5: antibody 2646 (antibody, V domains shown)
VH: QVQLVQSGAEVKKPGASVKVSCKVSGYTLTELSIHWVRQAPGKGLEWMGGFDPEDAETIYAQKFQGRVTMTEDTSTDTAYMELSSLRSEDTAVYYCATATAVAGTVFNYQYHYGLDFWGQGTTVTVSS
VL: not shown
B6: antibody 1814 (antibody, V domains shown)
VH: QVQLQESGPGLVKPSETLSLTCSVSGGSINYYYWSWIRQTPGQGLEWIGFIYSSGTTNYNPSLKSRVTMSKDTAKKQFSLKLTSVTAADSAVYYCARHSRSCTNGVCQTYYYYALDVWGHGTTVTVSS
VL: QSVLTQPPSVSGAPGQRVTISCTGSGSNIGSGYDVHWYQQLPGRAPKLLIYRNRNRPSGVPDRFSGSKSGTSASLAIAGLQSEDEGDYFCQSYDGRLGESAVFGGGTRLTVL
B7: antibody 1815 (antibody, V domains shown)
VH: B6 VH with Q39K, T40S, Q43K, T68S, K71I, D72G, A74S, K76R, T83S
VL: QSVLTQPPSVSGAPGQRVTISCTGSSSNIGAGYDVHWYQQLPGTAPKLLIYANTHRPSGVPDRFSASKSGTSASLAIAGLQAEDEGDYYCQSYDGSLSESAVFGGGTRLTVL
B8: antibody 1856 (antibody, V domains shown)
VH: EVRLVESGGGLVKPGGSLRLSCAASGFSFSLYTMNWVRQAPGKGLEWVSYISSSSSYRYYADSVKGRFSVSRDNAKNTLYLEMNGLRAEDTAVYYCARDGYCPRGVCTYYGMDVWGQGTTVTVSA
VL: EIVMTQSPATLSVSPGERATLSCRASQTIGIRLAWYQQKPGQAPRLLIYDATIRATGIPARFSGSGSGTDFTLTISGLQSEDFAVYYCQRYNNWPPVYTFGQGTKLEMK
B9: antibody 1969 (antibody, V domains shown)
VH: QVQLVQSGAEVKKPGASVKVSCKASGYSFTDYYIHWVRQAPGQGLEWMGIIKPSAGATVYAQKFRGRVSMTSDTSTGTVYMELSGLKSEDTAVYYCARDYNRSFDFWGQGTLVTVSS
VL: QSVLTQPPSVSAAPGQTVTISCAGSTSNIGKNYVSWYQHLPGTAPKLLIYDNIKRPSGIPDRFSGSTSGTSATLGITELQTGDEADYYCGTWDSSLSAYVFGTGTKVTVL
B10: antibody 1871 (antibody, V domains shown)
VH: B8 VH with R3Q, A23V, L31I, T33S, R58K, T78S, E82Q, M83L, R104K
VL: EIVMTQSPATLSVSPGERVTLSCRASQSVRSRLAWFQQKPGQAPRLLIYDASIRATGIPARFSGSGSGTEFTLIISSLQSEDFAVYYCQQYDNWPPAYTFGQGTKLEIK
B11: antibody 1867 (antibody, V domains shown)
VH: B8 VH with R3Q, L31T, K65R, T78S, E82Q, A88V, R104N, A125S
VL: not shown
B12: antibody 1888 (antibody, V domains shown)
VH: B8 VH with R3Q, S28T, L31S, T33S, R58K, T78S, E82Q, M83L, A88V, R104K
VL: B10 VL with V19A, A43P, A60D, S77G
B13: antibody 1963 (antibody, V domains shown)
VH: QVQLVQSGAEVKKPGASVKVSCKASGYTFTSNYIHWLRQAPGQGLEWMGIIKPSGTSTISAQKFRGRVAMTRDTSTSTVYMELSSLRFEDTAIYYCARDAKRALETWGQGTMVTVSS
VL: QSVLTQPPSVSAAPGQKVTISCSGSSSNIGNNYVSWYQQLPGTAPKLLIYDNNKRPSGIPDRFSGSRSGTSATLGITGLQTGDEADYYCGTWDSSLSAWVFGGGTKLTVL
B14: antibody 1671 (antibody, V domains shown)
VH: EVQLVESGGGLVKPGGSLRLSCAASGFTFSTYNMNWVRQAPGKGLEWVSSISSNSNYIYYADSMKGRFTISRDNAKNSLYLQMNSLRAEDTAVYYCARDMDPLPYFDWLLYAFDVWGQGTMVTVSS
VL: EIVLTQSPGTLSLSPGERATLSCRASQSVSGSYLAWYQQKPGQAPRLLIYGASSRATGIPDRFSGSGSGTDFTLTISRLEPEDFAVYYCQQYGSPIFTFGPGTKVDIK
B15: antibody 1823 (antibody, V domains shown)
VH: EVQLVESGGGLVKPGGSLRLSCVASGFSFGLYTMNWVRQAPGKGLEWVSYISSSTSYKYYADSVKGRVSVSRDNAKNSLYLQLNGLRVEDTAVYYCARDGYCPNGICTYYGMDVWGQGTTVTVSA
VL: EIVMTQSPATLSVSPGERATLSCRASQSVSSNLAWYQQKPGQAPRLLIYGASTRATGIPARFSGSGSGTEFTLTITGLQSEDFAVYYCQQYDKWPPAYSFGQGTKVEIK

What follows are binders tested against T1, S2 subunit of the SARS-CoV-2 spike protein, WA01/2020 strain (SARS-CoV-2, WA01/2020 strain, UniProt P0DTC2 686-1213) (assay: ELISA, antibody at 0.1 ug/mL).

| Binder | binding result |
| --- | --- |
| B1 | no binding (tested: 0.1 ug/mL) |
| B2 | no binding (tested: 0.1 ug/mL) |
| B3 | no binding (tested: 0.1 ug/mL) |

The binders below were run against T2, SARS-CoV-2 nucleocapsid (N) protein (SARS-CoV-2, UniProt P0DTC9 1-419) (assay: ELISA, antibody at 0.1 ug/mL).

| Binder | binding result |
| --- | --- |
| B1 | no binding (tested: 0.1 ug/mL) |
| B2 | no binding (tested: 0.1 ug/mL) |
| B3 | no binding (tested: 0.1 ug/mL) |

What follows are binders tested against SARS-CoV-2 spike (S) protein trimer, WA01/2020 strain (SARS-CoV-2, WA01/2020 strain, UniProt P0DTC2 16-1213) (assay: dose-response ELISA on coated antigen).

| Binder | EC50 [nM] |
| --- | --- |
| B4 | 0.043 |
| B1 | 0.021 |
| B5 | 0.024 |

These binders were tested against T3, S1 subunit of the SARS-CoV-2 spike protein, WA01/2020 strain (SARS-CoV-2, WA01/2020 strain, UniProt P0DTC2 16-685) (assay: dose-response ELISA on coated antigen).

| Binder | EC50 [nM] |
| --- | --- |
| B4 | 0.084 |
| B1 | 0.058 |
| B5 | 0.033 |

These binders were tested against T2, SARS-CoV-2 nucleocapsid (N) protein (assay: ELISA screening, antibody concentration not given).

| Binder | binding result |
| --- | --- |
| B6 | no binding (tested: not printed) |
| B7 | no binding (tested: not printed) |
| B8 | no binding (tested: not printed) |
| B9 | no binding (tested: not printed) |
| B10 | no binding (tested: not printed) |
| B11 | no binding (tested: not printed) |
| B12 | no binding (tested: not printed) |
| B13 | no binding (tested: not printed) |

What follows are binders tested against T3, S1 subunit of the SARS-CoV-2 spike … (assay: ELISA screening, antibody concentration not given).

| Binder | binding result |
| --- | --- |
| B6 | no binding (tested: not printed) |
| B7 | no binding (tested: not printed) |
| B8 | no binding (tested: not printed) |
| B9 | no binding (tested: not printed) |
| B10 | no binding (tested: not printed) |
| B11 | no binding (tested: not printed) |
| B12 | no binding (tested: not printed) |
| B13 | no binding (tested: not printed) |

The binders below were run against T3, S1 subunit of the SARS-CoV-2 spike … (assay: not given).

| Binder | Kd [nM] |
| --- | --- |
| B4 | 0.00823 |
| B14 | 0.0506 |
| B5 | 0.00296 |

These binders were tested against T1, S2 subunit of the SARS-CoV-2 spike … (assay: ELISA on S2 (S2 Binding EC50)).

| Binder | EC50 [nM] |
| --- | --- |
| B6 | 0.077 |
| B7 | 0.127 |
| B15 | 0.614 |
| B10 | 0.103 |

These binders were tested against T1, S2 subunit of the SARS-CoV-2 spike … (assay: dose-response ELISA; antigen taken from the column 'Structural data').

| Binder | EC50 [nM] |
| --- | --- |
| B6 | 0.077 |
| B7 | 0.127 |
| B9 | 0.035 |
| B15 | 0.614 |
| B10 | 0.103 |
| B11 | 1.09 |
| B13 | 0.041 |

The binders below were run against SARS-CoV-2 spike protein, WA1/2020, borne on lentiviral pseudovirus (SARS-CoV-2, WA01/2020 strain, UniProt P0DTC2 14-1273) (assay: cell-based or functional assay).

| Binder | Pseudo Neut, WA1/2020 IC50 (pM) |
| --- | --- |
| B6 | 171 |
| B7 | 10.2 |
| B10 | 440 |
| B12 | > 111 |

Each binder was assayed against SARS-CoV (2003) spike protein borne on lentiviral pseudovirus (SARS-CoV (2003), UniProt P59594 14-1255) (assay: cell-based or functional assay).

| Binder | Pseudo Neut, SARS-CoV 2003 IC50 [nM] |
| --- | --- |
| B6 | 6.5 |
| B7 | 26 |
| B8 | > 111 |
| B9 | 97 |
| B15 | 210 |
| B10 | 30 |
| B11 | 135 |
| B12 | > 111 |
| B13 | 69 |
